Laboratory results reported in patent US9176064B2, “Bisubstrate fluorescent probes for protein kinase CK2” (University of Tartu, priority 2012, dated 2015).
Where a SMILES comes first, the peptide text is derived from it. [ ]: non-standard residue; d: D form. The star is where a group is joined. X1 = O=C(CCCCCCCn1cnc2c(Br)c(Br)c(Br)c(Br)c21)*

Tests used:
Experiment in all cases: Kinase panel residual activity
Format in all cases: biochemical
Conditions in all cases: compound at 1 micromolar
[1] = molecular target: T1, DDR2 (Homo sapiens, UniProt Q16832)
T1 sequence (Q16832 22-855): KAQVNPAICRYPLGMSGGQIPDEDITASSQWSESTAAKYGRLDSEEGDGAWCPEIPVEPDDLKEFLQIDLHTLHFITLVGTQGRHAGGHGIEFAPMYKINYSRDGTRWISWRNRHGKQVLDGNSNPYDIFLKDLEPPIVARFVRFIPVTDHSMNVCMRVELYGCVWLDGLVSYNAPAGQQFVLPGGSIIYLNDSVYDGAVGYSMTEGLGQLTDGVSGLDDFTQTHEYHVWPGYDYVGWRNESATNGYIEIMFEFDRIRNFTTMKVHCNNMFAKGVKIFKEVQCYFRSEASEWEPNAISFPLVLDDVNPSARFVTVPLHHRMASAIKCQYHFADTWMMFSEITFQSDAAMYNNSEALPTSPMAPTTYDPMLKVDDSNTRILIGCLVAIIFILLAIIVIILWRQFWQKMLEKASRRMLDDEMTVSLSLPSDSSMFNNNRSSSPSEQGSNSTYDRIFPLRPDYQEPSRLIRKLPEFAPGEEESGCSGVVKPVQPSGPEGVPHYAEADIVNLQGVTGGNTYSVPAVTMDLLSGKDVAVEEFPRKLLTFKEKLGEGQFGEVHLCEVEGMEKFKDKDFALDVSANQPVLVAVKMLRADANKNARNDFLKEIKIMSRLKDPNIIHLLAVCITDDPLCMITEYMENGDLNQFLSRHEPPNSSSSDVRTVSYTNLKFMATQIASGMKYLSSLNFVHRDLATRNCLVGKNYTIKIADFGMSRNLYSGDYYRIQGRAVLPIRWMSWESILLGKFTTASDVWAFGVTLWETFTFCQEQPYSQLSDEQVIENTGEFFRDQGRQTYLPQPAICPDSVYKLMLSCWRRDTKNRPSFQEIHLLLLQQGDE

[2] = molecular target: MNK2 (Homo sapiens, UniProt Q9HBH9)
Sequence of MNK2 (Q9HBH9 whole entry, species assumed): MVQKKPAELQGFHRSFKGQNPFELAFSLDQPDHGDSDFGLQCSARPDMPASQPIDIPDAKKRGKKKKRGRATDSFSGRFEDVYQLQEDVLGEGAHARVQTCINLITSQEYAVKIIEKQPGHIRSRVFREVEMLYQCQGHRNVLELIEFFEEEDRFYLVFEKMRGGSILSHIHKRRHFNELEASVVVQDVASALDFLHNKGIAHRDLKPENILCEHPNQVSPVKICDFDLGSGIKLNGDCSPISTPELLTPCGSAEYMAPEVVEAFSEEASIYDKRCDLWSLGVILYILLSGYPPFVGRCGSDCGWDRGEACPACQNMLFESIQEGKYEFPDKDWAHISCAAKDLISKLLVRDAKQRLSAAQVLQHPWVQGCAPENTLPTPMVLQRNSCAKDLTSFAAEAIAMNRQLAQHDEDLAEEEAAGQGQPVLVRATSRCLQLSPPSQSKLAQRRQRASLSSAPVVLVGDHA

[3] = molecular target: T2, NEK2a (Homo sapiens, UniProt P51955)
T2 sequence (P51955 1-445): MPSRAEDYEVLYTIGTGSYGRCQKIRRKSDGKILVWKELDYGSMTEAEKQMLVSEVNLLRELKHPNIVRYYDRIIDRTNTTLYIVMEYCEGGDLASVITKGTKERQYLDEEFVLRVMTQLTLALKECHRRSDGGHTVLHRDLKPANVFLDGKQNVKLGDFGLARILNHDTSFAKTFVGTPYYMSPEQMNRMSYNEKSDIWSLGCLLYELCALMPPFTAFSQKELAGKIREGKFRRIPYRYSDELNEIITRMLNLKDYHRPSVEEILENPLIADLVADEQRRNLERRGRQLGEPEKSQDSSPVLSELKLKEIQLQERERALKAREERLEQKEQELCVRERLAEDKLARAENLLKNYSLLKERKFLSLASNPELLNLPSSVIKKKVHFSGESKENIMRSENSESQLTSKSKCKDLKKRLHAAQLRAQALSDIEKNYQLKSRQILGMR

[4] = molecular target: MSK1 (Homo sapiens, UniProt O75582)
Sequence of MSK1 (O75582 whole entry, species assumed): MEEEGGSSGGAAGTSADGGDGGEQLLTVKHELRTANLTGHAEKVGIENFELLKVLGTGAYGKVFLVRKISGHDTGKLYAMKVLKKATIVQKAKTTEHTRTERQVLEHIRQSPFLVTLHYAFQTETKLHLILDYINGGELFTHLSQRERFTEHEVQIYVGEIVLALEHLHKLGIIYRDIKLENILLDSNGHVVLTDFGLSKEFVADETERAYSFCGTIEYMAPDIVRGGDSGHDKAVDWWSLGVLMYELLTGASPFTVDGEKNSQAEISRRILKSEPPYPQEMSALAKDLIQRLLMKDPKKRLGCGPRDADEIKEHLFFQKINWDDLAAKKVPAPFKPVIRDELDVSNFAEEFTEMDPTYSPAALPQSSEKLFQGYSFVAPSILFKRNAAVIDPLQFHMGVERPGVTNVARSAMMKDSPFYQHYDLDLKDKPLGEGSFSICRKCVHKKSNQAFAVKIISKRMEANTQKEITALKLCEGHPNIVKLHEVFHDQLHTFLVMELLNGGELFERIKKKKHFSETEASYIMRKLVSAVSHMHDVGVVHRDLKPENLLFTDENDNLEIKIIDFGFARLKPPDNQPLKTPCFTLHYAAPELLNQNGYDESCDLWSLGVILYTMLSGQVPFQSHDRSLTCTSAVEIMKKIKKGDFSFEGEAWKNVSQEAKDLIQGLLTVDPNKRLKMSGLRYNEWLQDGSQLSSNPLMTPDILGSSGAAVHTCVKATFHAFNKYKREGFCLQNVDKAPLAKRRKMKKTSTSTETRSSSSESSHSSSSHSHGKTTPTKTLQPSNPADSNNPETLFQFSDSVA

[5] = molecular target: ERK5 (Homo sapiens, UniProt Q13164)
Sequence of ERK5 (Q13164 whole entry, species assumed): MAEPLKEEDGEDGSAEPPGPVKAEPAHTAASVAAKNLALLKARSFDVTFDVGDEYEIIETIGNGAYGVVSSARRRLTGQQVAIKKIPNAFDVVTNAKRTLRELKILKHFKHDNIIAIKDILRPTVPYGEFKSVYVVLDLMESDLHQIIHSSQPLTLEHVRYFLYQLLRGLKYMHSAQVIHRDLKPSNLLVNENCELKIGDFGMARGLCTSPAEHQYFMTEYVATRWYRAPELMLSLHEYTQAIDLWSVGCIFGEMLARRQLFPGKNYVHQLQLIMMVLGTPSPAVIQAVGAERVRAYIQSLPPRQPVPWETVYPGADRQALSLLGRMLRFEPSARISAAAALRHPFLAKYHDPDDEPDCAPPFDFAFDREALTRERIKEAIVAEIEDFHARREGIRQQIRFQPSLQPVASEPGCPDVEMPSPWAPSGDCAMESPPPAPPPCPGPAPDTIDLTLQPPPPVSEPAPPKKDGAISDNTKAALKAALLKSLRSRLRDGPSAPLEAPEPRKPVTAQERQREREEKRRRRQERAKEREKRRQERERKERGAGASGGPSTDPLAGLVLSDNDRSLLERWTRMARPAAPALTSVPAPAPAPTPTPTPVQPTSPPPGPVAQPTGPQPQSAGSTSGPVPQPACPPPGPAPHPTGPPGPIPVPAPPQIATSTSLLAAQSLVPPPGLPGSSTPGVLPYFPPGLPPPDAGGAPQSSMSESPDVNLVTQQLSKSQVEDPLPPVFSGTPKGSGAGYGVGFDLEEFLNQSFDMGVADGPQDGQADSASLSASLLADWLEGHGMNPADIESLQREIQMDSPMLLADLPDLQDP

[6] = molecular target: NEK6 (Homo sapiens, UniProt Q9HC98)
Sequence of NEK6 (Q9HC98 whole entry, species assumed): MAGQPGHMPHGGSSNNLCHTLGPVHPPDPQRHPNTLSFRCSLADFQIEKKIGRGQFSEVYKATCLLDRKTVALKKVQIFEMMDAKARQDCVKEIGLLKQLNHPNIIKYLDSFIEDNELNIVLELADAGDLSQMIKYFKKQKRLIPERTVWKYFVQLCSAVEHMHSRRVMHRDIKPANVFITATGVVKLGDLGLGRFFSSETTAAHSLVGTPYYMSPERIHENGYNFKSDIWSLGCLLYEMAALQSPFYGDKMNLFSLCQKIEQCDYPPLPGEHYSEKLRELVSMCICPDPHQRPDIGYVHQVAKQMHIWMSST

[7] = molecular target: RIPK2 (Homo sapiens, UniProt O43353)
Sequence of RIPK2 (O43353 whole entry, species assumed): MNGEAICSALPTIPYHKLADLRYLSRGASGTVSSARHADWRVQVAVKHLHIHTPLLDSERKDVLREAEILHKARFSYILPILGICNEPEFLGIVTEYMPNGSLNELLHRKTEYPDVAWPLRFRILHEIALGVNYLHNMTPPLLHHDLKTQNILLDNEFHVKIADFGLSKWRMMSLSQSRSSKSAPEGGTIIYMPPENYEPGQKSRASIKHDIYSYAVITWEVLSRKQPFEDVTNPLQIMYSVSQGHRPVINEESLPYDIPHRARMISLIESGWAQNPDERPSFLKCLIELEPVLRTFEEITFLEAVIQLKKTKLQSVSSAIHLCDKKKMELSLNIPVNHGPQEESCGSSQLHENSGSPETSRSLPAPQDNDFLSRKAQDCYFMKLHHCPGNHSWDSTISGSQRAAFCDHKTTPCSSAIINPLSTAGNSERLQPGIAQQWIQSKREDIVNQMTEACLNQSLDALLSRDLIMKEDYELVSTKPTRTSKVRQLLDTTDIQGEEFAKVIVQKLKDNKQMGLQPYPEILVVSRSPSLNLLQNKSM

[8] = molecular target: T3, p38g MAPK (Homo sapiens, UniProt P53778)
T3 sequence (P53778 1-367): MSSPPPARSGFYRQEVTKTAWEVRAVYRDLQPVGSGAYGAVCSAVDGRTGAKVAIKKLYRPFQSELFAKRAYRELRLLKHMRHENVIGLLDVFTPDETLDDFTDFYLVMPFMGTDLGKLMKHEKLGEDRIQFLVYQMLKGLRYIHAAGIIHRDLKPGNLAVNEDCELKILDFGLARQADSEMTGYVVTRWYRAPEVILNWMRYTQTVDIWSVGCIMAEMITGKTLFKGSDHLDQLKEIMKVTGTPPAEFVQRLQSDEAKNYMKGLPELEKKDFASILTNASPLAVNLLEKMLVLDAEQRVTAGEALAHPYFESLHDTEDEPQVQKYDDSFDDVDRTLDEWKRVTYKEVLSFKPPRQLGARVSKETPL

## NCCCC[C@H](NC(=O)[C@H](CC(=O)O)NC(=O)[C@H](CC(=O)O)NC(=O)[C@H](CC(=O)O)NC(=O)[C@H](CC(=O)O)NC(=O)[C@H](CC(=O)O)NC(=O)[C@@H](CC(=O)O)NC(=O)CCCCCCCn1cnc2c(Br)c(Br)c(Br)c(Br)c21)C(=O)O [TBBI-OcA-(D-Asp)-(L-Asp)5-(L-Lys)-OH] (X1-[dD]DDDDDK-OH)
[1]
  remaining activity at 1 µM: 109%
[2]
  remaining activity at 1 µM: 89%
[3]
  remaining activity at 1 µM: 94%
[4]
  remaining activity at 1 µM: 102%
[5]
  remaining activity at 1 µM: 98%
[6]
  remaining activity at 1 µM: 121%
[7]
  remaining activity at 1 µM: 120%
[8]
  remaining activity at 1 µM: 97%
